B1: Tyrosine-protein phosphatase non-receptor type 1 (Homo sapiens), P18031 (parent)
chain: MEMEKEFEQIDKSGSWAAIYQDIRHEASDFPCRVAKLPKNKNRNRYRDVSPFDHSRIKLHQEDNDYINASLIKMEEAQRSYILTQGPLPNTCGHFWEMVWEQKSRGVVMLNRVMEKGSLKCAQYWPQKEEKEMIFEDTNLKLTLISEDIKSYYTVRQLELENLTTQETREILHFHYTTWPDFGVPESPASFLNFLFKVRESGSLSPEHGPVVVHCSAGIGRSGTFCLADTCLLLMDKRKDPSSVDIKKVLLEMRKFRMGLIQTADQLRFSYLAVIEGAKFIMGDSSVQDQWKELSHEDLEPPPEHIPPPPRPPKRILEPHNGKCREFFPNHQWVKEETQEDKDCPIKEEKGSPLNAAPYGIESMSQDTEVRSRVVGGSLRGAQAASPAKGEPSLPEKDEDHALSYWKPFLVNMCVATVLTAGAYLCYRFLFNSNT

Variants of: B1
Conditions: with insr_human INSR

Row | Variant | effect of a mutation on the interaction
1 | D181A | increasing interaction
